According to the Immune Epitope Database (IEDB):

Assays:
Assay in all cases: IEDB peptide-MHC binding, purified MHC/competitive/radioactivity; ≥ and ≤ were set here for values at or beyond the usual limits of such assays
Details in all cases: source organism: Bordetella pertussis
HLA-B*07:02 = molecular target: HLA-B*07:02
HLA-A*02:01 = molecular target: HLA-A*02:01
HLA-B*35:01 = molecular target: HLA-B*35:01
HLA-B*53:01 = molecular target: HLA-B*53:01
HLA-B*57:01 = molecular target: HLA-B*57:01
HLA-B*44:03 = molecular target: HLA-B*44:03

## AALGRGHSL
HLA-B*07:02
  IC50: 19.6 µM
HLA-A*02:01
  IC50: 32.1 µM

## EATQQAAGF
HLA-B*35:01
  IC50: 41.1 µM

## GYEAGFSLG
HLA-B*53:01
  IC50: 26 µM

## HADDGTIVI
HLA-B*53:01
  IC50: 69.9 µM

## HAQGKALLY
HLA-B*35:01
  IC50: 0.385 µM

## ITNETGKTY
HLA-B*57:01
  IC50: ≥ 70.4 µM

## LASDGSVDF
HLA-B*53:01
  IC50: 23.1 µM

## LVFSHVRGM
HLA-B*35:01
  IC50: 19.8 µM

## MIYMSGLAV
HLA-A*02:01
  IC50: 2.86 µM

## PGPTTDYST
HLA-B*44:03
  IC50: ≥ 78.2 µM

## QITQHGGPY
HLA-B*35:01
  IC50: 44 µM

## QITQHGSPY
HLA-B*35:01
  IC50: 34.5 µM

## TSRTVTMRY
HLA-B*57:01
  IC50: 0.182 µM

## TVQELALKL
HLA-B*44:03
  IC50: 12.5 µM

## VAMKPYEVT
HLA-B*35:01
  IC50: 69.9 µM

## VAVAGGRWH
HLA-B*44:03
  IC50: ≥ 78.2 µM
